# Experimental data published in US20220211798A1, “THERAPY GUIDANCE AND/OR THERAPY MONITORING FOR A TREATMENT WITH ANGIOTENSIN-RECEPTOR-AGONIST AND/OR A PRECURSOR THEREOF” (4TEEN4 PHARMACEUTICALS GMBH, priority 2018, published 2022).
# “Also recorded” adds a separate entry of the source.
# B1: native DPP3: native human Dipeptidyl peptidase 3 purified from human erythrocyte lysate (protein)
# chain: ADTQYILPNDIGVSSLDCREAFRLLSPTERLYAYHLSRAAWYGGLAVLLQTSPEAPYIYALLSRLFRAQDPDQLRQHALAEGLTEEEYQAFLVYAAGVYSNMGNYKSFGDTKFVPNLPKEKLERVILGSEAAQQHPEEVRGLWQTCGELMFSLEPRLRHLGLGKEGITTYFSGNCTMEDAKLAQDFLDSQNLSAYNTRLFKEVDGEGKPYYEVRLASVLGSEPSLDSEVTSKLKSYEFRGSPFQVTRGDYAPILQKVVEQLEKAKAYAANSHQGQMLAQYIESFTQGSIEAHKRGSRFWIQDKGPIVESYIGFIESYRDPFGSRGEFEGFVAVVNKAMSAKFERLVASAEQLLKELPWPPTFEKDKFLTPDFTSLDVLTFAGSGIPAGINIPNYDDLRQTEGFKNVSLGNVLAVAYATQREKLTFLEEDDKDLYILWKGPSFDVQVGLHELLGHGSGKLFVQDEKGAFNFDQETVINPETGEQIQSWYRSGETWDSKFSTIASSYEECRAESVGLYLCLHPQVLEIFGFEGADAEDVIYVNWLNMVRAGLLALEFYTPEAFNWRQAHMQARFVILRVLLEAGEGLVTITPTTGSDGRPDARVRLDRSKIRSVGKPALERFLRRLQVLKSTGDVAGGRALYEGYATVTDAPPECFLTLRDTVLLRKESRKLIVQPNTRLEGSDVQLLEYEASAAGLIRSFSERFPEDGPELEEILTQLATADARFWKGPSEAPSGQA
# What was measured:
# [1] = system: healthy Black 6 mice injected with DPP3; assay: Effect of Valsartan in healthy mice injected with DPP3; format: in vivo
# Description: The effect of an antagonist for the type I angiotensin II receptor (ATR1), Valsartan, in healthy mice injected with DPP3 was studied by monitoring the shortening fraction. In this experiment, healthy Black 6 mice (8-12 weeks, group size refer to table 8) consumed water with 50 mg/kg Valsartan per day or just water (Table 8) for a period of two weeks. Subsequently, both groups received an intravenous injection of native DPP3 (600 μg/kg) and the shortening fraction was assessed according to Gao et al., 2011 at 15, 60 and 120 minutes (FIG. 12).
# [2] = system: Patients with vasodilatory shock; details: vasodilatory shock (80% in septic shock); cited from earlier work
# Wild type Black 6 mice = assay: Effect of native DPP3 injection in healthy mice; format: in vivo; details: 600 μg/kg intravenously, compared to PBS control
# Description: The effect of native hDPP3 injection in healthy mice was studied by monitoring the shortening fraction and renal resistive index.
# Wild type Black 6 mice (8-12 weeks, group size refer to table 3) were acclimated during 2 weeks and a baseline echocardiography was done. The mice were randomly allocated to one of the two groups and, subsequently, native DPP3 protein or PBS were injected intravenously via a retro-orbital injection with a dose of 600 μg/kg for DPP3 protein.
# After DPP3 or PBS injection, cardiac function was assessed by echocardiography (Gao et al. 2011) and renal function assessed by renal resistive index (Lubas et al., 2014, Dewitte et al, 2012) at 15, 60 and 120 minutes (FIG. 3).
# [3] = system: AngII-infused hypertensive mice; details: cited from earlier work
# normotensive mice = details: cited from earlier work
molecule,measurement,setting,value
CCCCC(=O)N(Cc1ccc(-c2ccccc2-c2nnn[nH]2)cc1)[C@H](C(=O)O)C(C)C [Valsartan],shortening fraction after DPP3 injection,"[1]; 50 mg/kg Valsartan per day in water for two weeks, then native DPP3 600 μg/kg intravenous",rescued; also recorded: no signs of heart dysfunction
Asp-Arg-Val-Tyr-Ile-His-Pro-Phe (DRVYIHPF; listed as Homo sapiens) [angiotensin II],hypotension,[2],significant correction of hypotension
same,survival to 28 days,[2],more likely to survive to 28 days
B1,renal resistive index (renal function),Wild type Black 6 mice,renal resistive index increase
same,shortening fraction,Wild type Black 6 mice,significantly reduced shortening fraction
same,renal resistive index (renal function),Wild type Black 6 mice; listed as DPP3,increased renal resistive index
same,shortening fraction,Wild type Black 6 mice; listed as DPP3,shortening fraction reduction
same,shortening fraction,"[1]; native DPP3 600 μg/kg intravenous, mice on water without Valsartan",significant decrease in the shortening fraction
same,blood pressure,[3],reduced blood pressure
same,heart rate,[3],without changing heart rate
same,blood pressure,normotensive mice,no alteration in blood pressure
